Measurements taken from PMC8113403, “Assembly of Natively Synthesized Dual Chromophores Into Functional Actinorhodopsin” (Frontiers in Microbiology, 2021).

System: Asp85
Test: UV-vis
Settings: not stated (0.02% DDM solution; pH adjusted with small amounts of HCl or NaOH); Purified, detergent-solubilised holoprotein with all-trans-retinal; no carotenoid; light adaptation not stated

Row | Substance | pKa
1 | Actinorhodopsin ActR-13023 E96Q (Candidatus Aquiluna sp. IMCC13023; E96Q) | 7.67
2 | Actinorhodopsin ActR-13023 (Candidatus Aquiluna sp. IMCC13023) | ≈ 7.81
